Assay [1] deals with human PSMA protein (ELISA) (human, UniProt Q04609 44-750, limits assumed). Put plainly: ELISA on human PSMA protein. The method, then: The two indicated antibodies were tested for binding in a standard ELISA assay to human PSMA. The human PSMA protein was used at a concentration of 2 μg/mL to capture UniAbs at 50 ng/mL. Antibody binding was detected with a goat anti-human IgG HRP conjugated antibody (ThermoFisher 31413). All antibodies were diluted in 1× PBS with 0.05% Tween-20 and 1% dry milk powder.
(In general: ELISA stands for enzyme-linked immunosorbent assay.)

Assay [2] addresses T1, human PSMA expressed on cells (LNCaP, 22Rv1, PC3 cells stably transfected to express human PSMA) (human, UniProt Q04609 1-750).
T1 construct: whole, on cells; Type II transmembrane protein; The background section calls it a non-covalent homodimer; also called Prostate Specific Membrane Antigen; Glutamate Carboxypeptidase II
Nature of the assay: cell-binding assay on PSMA+ cells.

T1 sequence (Q04609 whole entry): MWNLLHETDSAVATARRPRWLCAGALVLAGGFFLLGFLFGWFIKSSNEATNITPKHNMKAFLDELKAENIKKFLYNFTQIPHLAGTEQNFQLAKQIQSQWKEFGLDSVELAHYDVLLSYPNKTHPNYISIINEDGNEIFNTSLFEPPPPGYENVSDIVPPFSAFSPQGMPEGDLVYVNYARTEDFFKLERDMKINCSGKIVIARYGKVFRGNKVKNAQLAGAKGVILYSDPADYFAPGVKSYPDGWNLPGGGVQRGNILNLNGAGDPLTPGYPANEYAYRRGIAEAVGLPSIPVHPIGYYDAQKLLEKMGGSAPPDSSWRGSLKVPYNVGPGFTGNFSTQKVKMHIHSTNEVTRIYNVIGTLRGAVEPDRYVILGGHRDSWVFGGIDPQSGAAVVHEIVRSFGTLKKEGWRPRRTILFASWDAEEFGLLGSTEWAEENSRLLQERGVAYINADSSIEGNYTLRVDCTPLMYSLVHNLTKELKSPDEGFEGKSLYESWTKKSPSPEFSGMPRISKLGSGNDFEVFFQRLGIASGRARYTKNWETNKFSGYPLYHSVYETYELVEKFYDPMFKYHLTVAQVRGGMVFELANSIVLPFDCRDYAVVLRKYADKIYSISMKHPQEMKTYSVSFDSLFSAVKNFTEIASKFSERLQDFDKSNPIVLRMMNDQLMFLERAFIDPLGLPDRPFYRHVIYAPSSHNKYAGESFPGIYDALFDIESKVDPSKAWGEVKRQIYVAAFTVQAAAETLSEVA
human PSMA protein (ELISA), sequence (Q04609 44-750 limits assumed): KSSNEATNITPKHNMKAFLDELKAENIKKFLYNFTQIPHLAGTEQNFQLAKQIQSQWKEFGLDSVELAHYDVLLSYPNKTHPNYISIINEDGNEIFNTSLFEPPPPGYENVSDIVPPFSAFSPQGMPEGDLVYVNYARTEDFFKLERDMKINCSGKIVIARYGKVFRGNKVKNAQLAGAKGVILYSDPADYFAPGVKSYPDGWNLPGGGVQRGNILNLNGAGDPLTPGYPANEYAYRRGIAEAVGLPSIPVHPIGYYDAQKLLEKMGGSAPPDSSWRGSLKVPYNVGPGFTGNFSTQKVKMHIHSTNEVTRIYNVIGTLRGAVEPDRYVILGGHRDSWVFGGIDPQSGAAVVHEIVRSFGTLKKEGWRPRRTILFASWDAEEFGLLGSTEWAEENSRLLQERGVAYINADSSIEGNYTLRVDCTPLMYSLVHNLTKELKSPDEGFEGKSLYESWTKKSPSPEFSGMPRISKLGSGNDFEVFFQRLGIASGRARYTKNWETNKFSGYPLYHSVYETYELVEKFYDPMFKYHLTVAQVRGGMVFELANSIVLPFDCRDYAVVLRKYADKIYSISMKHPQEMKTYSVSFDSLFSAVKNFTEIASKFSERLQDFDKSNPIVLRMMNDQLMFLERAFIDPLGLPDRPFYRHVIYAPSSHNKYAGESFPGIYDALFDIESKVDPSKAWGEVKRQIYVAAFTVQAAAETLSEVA

B1: Anti-PSMA heavy chain-only antibody (UniAb) Clone ID 325795 (antibody, V domains shown)
VH: EVQLLESGGGLVQPGGSLRLSCAASGFTFKFYAMSWVRQAPGKGPEWVSVISGSGGSTYYADSVKGRFTISRDNSKNTLHLQMNSLRAEDTAVYFCAKEIAEASRGFDYRGQGTLVTVSS
notes: Heavy chain-only antibody with no light chain
For the molecule B1, the binding result in assay [1] and in assay [2] was “binds” throughout.

B2: Anti-PSMA heavy chain-only antibody (UniAb) Clone ID 325972 (antibody, V domains shown)
VH: EVQLLESGGGVVQPGRSLRLSCAASGFSFSGYGMHWVRQAPGKEREWVAVISYDGSNKYYADSVKGRFTISRDNSKNTLYLQMNSLRAEDTAVYYCAKDANWGQHPDHTSFDYRGQGTLVTVSS
notes: as for B1
As to B2, the binding result in assay [1] and in assay [2] was “binds” throughout.

Values taken from patent publication US20240131074A1 (TENEOBIO, published 2024).
